According to article PMC12052392 (PLOS Pathogens, 2025):

Legend:
[1] = molecular target: SARS-CoV-2 spike (S) protein, full-length, expressed on the surface of HEK-293T cells (SARS-CoV-2 prototype (MN908947.3), UniProt P0DTC2); assay: flow cytometry on cells; details: one partner purified
[2] = molecular target: SARS-CoV spike (S) protein expressed on HEK-293T cells (SARS-CoV, GenBank AY278554.2, UniProt P59594); assay: flow cytometry on cells; details: one partner purified
[3] = molecular target: PANG/GD spike (S) protein expressed on HEK-293T cells (Pangolin coronavirus Guangdong …, strain); assay: flow cytometry on cells; details: one partner purified
[4] = molecular target: WIV1 spike (S) protein expressed on HEK-293T cells (Bat SARS-like coronavirus WIV1 …, UniProt U5WI05, strain); assay: flow cytometry on cells; details: one partner purified
[5] = molecular target: HKU3 spike (S) protein expressed on HEK-293T cells (Bat SARS-like coronavirus HKU3, GenBank …, UniProt A0A7G6UAJ9, strain); assay: flow cytometry on cells; details: one partner purified
[6] = molecular target: T1, GST-fused truncated S2 protein S2 (T1076-H1159) (SARS-CoV-2 prototype (MN908947.3), UniProt P0DTC2); assay: far-Western, overlay or dot blot; details: both partners purified
T1 construct: not shown: GST, N-terminal, kept

[7] = molecular target: S2 (T1076-Q1208) protein as coated in ELISA (devoid of the His tag) (SARS-CoV-2, MN908947.3, UniProt P0DTC2); assay: ELISA; […], room temperature; […]; details: both partners purified
[8] = molecular target: T2, GST-fused truncated S2 protein S2 (D1139-L1152) (SARS-CoV-2, MN908947.3); assay: ELISA; […], room temperature; […]; details: both partners purified
T2 construct: not shown: GST, N-terminal, kept
T2 chain: DPLQPELDSFKEEL

[9] = molecular target: T3, GST-fused truncated S2 protein S2 (P1140-D1153) (SARS-CoV-2, MN908947.3, UniProt P0DTC2); assay: ELISA; […], room temperature; […]; details: both partners purified
T3 construct: not shown: GST, N-terminal, kept
T3 chain: PLQPELDSFKEELD

[10] = molecular target: T4, GST-fused truncated S2 protein S2 (P1140-L1152) (SARS-CoV-2 prototype (MN908947.3), UniProt P0DTC2); assay: ELISA; […], room temperature; […]; details: both partners purified
T4 construct: not shown: GST, N-terminal, kept
T4 chain: PLQPELDSFKEEL

[11] = molecular target: T5, GST-fused truncated S2 protein S2 (L1141-L1152) (SARS-CoV-2 prototype (MN908947.3), UniProt P0DTC2); assay: ELISA; […], room temperature; […]; details: both partners purified
T5 construct: not shown: GST, N-terminal, kept
T5 chain: LQPELDSFKEEL

B1: nanobody H17 (VHH)
VHH: EVQVVESGGGLVQTGGSLRLSCAASGSAFSSYAVNWYRQAPGKQREPVAAIGSFNTVYSDSVKGRFTISRDNAKNTVYLQMNSLKPEDTAVYVCNARRGATNYWGQGTQVTVSP
notes: also called anti-SH nNb H17; not shown: His6, C-terminal, kept
binding result [1]: binds | binding result [2]: binds | binding result [3]: binds | binding result [4]: binds | binding result [5]: binds | binding result [6]: binds | binding result [7]: binds | EC50 [8]: 11.3 nM | binding result [9]: no binding (tested: 200 nM) | binding result [10]: no binding (tested: 200 nM) | binding result [11]: no binding (tested: 200 nM)
